Results as given in article PMC11425217, “CCDC68 Maintains Mitotic Checkpoint Activation by Promoting CDC20 Integration into the MCC” (Advanced Science, 2024).

Experiments:
GST‐CDC20 [1] = target: T1, GST‐CDC20 (human (cDNA from HEK293T cells), UniProt Q12834 1-499); test: pull-down; purified MBP, MBP‐CCDC68‐FL or MBP‐CCDC68‐Δ280–300 incubated with GST‐CDC20; Coomassie staining and immunoblot; conditions: both partners purified
T1 construct: CDC20, full-length cDNA amplified from HEK293T cell cDNA; The legend names no limits; source: E. coli BL21, purified (Glutathione Sepharose 4B)

GST‐CDC20 [2] = target: T1, GST‐CDC20; test: pull-down; purified CCDC68 (50 nM) incubated with GST or the GST fusion protein; Coomassie staining and immunoblot; conditions: both partners purified

T1 sequence (Q12834 whole entry): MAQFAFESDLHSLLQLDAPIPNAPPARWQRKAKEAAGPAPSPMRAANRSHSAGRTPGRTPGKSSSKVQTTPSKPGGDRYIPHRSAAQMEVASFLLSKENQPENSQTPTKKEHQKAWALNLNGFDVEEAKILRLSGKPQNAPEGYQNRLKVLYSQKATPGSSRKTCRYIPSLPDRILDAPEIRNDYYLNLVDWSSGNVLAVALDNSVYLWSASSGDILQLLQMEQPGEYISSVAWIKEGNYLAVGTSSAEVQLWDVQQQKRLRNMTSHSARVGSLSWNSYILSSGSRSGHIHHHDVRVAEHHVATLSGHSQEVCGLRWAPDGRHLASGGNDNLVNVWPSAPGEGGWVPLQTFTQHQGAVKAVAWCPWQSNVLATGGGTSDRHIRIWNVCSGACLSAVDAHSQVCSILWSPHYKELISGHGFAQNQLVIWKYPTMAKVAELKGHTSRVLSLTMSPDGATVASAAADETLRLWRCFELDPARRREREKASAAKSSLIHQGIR

Row | binding result (GST‐CDC20 [1]) | binding result (GST‐CDC20 [2]) | Binder
1 | binds |  | MBP‐CCDC68‐Full length (FL) (natural protein, human (cDNA from HEK293T cells), UniProt Q9H2F9 1-335, looked up, CCDC68, full-length cDNA amplified from HEK293T cell cDNA; Vector pCold‐MBP; also called MBP‐CCDC68‐FL; source: E. coli BL21, purified (Amylose Beads, eluted with maltose)) MTTVTVTTEIPPRDKMEDNSALYESTSAHIIEETEYVKKIRTTLQKIRTQMFKDEIRHDSTNHKLDAKHCGNLQQGSDSEMDPSCCSLDLLMKKIKGKDLQLLEMNKENEVLKIKLQASREAGAAALRNVAQRLFENYQTQSEEVRKKQEDSKQLLQVNKLEKEQKLKQHVENLNQVAEKLEEKHSQITELENLVQRMEKEKRTLLERKLSLENKLLQLKSSATYGKSCQDLQREISILQEQISHLQFVIHSQHQNLRSVIQEMEGLKNNLKEQDKRIENLREKVNILEAQNKELKTQVALSSETPRTKVSKAVSTSELKTEGVSPYLMLIRLRK
2 |  | binds | Purified CCDC68 (recombinant, from bacteria) (natural protein, human (cDNA from HEK293T cells), UniProt Q9H2F9 1-335, looked up, CCDC68, full-length cDNA amplified from HEK293T cell cDNA; The legend names no limits; also called recombinant CCDC68; source: E. coli BL21, purified (eluted by cleaving the tag with PreScission protease)) MTTVTVTTEIPPRDKMEDNSALYESTSAHIIEETEYVKKIRTTLQKIRTQMFKDEIRHDSTNHKLDAKHCGNLQQGSDSEMDPSCCSLDLLMKKIKGKDLQLLEMNKENEVLKIKLQASREAGAAALRNVAQRLFENYQTQSEEVRKKQEDSKQLLQVNKLEKEQKLKQHVENLNQVAEKLEEKHSQITELENLVQRMEKEKRTLLERKLSLENKLLQLKSSATYGKSCQDLQREISILQEQISHLQFVIHSQHQNLRSVIQEMEGLKNNLKEQDKRIENLREKVNILEAQNKELKTQVALSSETPRTKVSKAVSTSELKTEGVSPYLMLIRLRK
